B1: TCR4 (TCR)
TCR alpha: QKEVEQDPGPLSVPEGAIVSLNCTYSNSAFQYFMWYRQYSRKGPELLMYTYSSGNKEDGRFTAQVDKSSKYISLFIRDSQPSDSATYLCAMGALNSGAGSYQLTFGKGTKLSVIPNIQNPDPAVYQLRDSKSSDKSVCLFTDFDSQTNVSQSKDSDVYITDKCVLDMRSMDFKSNSAVAWSNKSDFACANAFNNSIIPEDTFFPSPESSCDVKLVEKSFETDTNLNFQNLSVIGFRILLLKVAGFNLLMTLRLWSS
TCR beta: KAGVTQTPRYLIKTRGQQVTLSCSPISGHRSVSWYQQTPGQGLQFLFEYFSETQRNKGNFPGRFSGRQFSNSRSEMNVSTLELGDSALYLCASSLSSGTGTEAFFGQGTRLTVEDLKNVFPPEVAVFEPSEAEISHTQKATLVCLATGFYPDHVELSWWVNGKEVHSGVCTDPQPLKEQPALNDSRYCLSSRLRVSATFWQNPRNHFRCQVQFYGLSENDEWTQDRAKPVTQIVSAEAWGRADCGFTSESYQQGVLSATILYEILLGKATLYAVLVSALVLMAMVKRKDSRG
B2: TCR5 (TCR)
TCR alpha: RGEDVEQSLFLSVREGDSSVINCTYTDSSSTYLYWYKQEPGAGLQLLTYIFSNMDMKQDQRLTVLLNKKDKHLSLRIADTQTGDSAIYFCAERDAGNNRKLIWGLGTSLAVNPNIQNPDPAVYQLRDSKSSDKSVCLFTDFDSQTNVSQSKDSDVYITDKCVLDMRSMDFKSNSAVAWSNKSDFACANAFNNSIIPEDTFFPSPESSCDVKLVEKSFETDTNLNFQNLSVIGFRILLLKVAGFNLLMTLRLWSS
TCR beta: GAGVSQSPRYKVAKRGQDVALRCDPISGHVSLFWYQQALGQGPEFLTYFQNEAQLDKSGLPSDRFFAERPEGSVSTLKIQRTQQEDSAVYLCASSLEGGDTQYFGPGTRLTVLEDLKNVFPPEVAVFEPSEAEISHTQKATLVCLATGFYPDHVELSWWVNGKEVHSGVCTDPQPLKEQPALNDSRYCLSSRLRVSATFWQNPRNHFRCQVQFYGLSENDEWTQDRAKPVTQIVSAEAWGRADCGFTSESYQQGVLSATILYEILLGKATLYAVLVSALVLMAMVKRKDSRG
B3: TCR91 (TCR)
TCR alpha: AQKVTQAQTEISVVEKEDVTLDCVYETRDTTYYLFWYKQPPSGELVFLIRRNSFDEQNEISGRYSWNFQKSTSSFNFTITASQVVDSAVYFCALNEGGGSTLGRLYFGRGTQLTVWPDIQNPDPAVYQLRDSKSSDKSVCLFTDFDSQTNVSQSKDSDVYITDKCVLDMRSMDFKSNSAVAWSNKSDFACANAFNNSIIPEDTFFPSPESSCDVKLVEKSFETDTNLNFQNLSVIGFRILLLKVAGFNLLMTLRLWSS
TCR beta: MGPGLLHWMALCLLGTGHGDAMVIQNPRYQVTQFGKPVTLSCSQTLNHNVMYWYQQKSSQAPKLLFHYYDKDFNNEADTPDNFQSRRPNTSFCFLDIRSPGLGDAAMYLCATSTGRVYQPQHFGDGTRLSILEDLNKVFPPEVAVFEPSEAEISHTQKATLVCLATGFFPDHVELSWWVNGKEVHSGVCTDPQPLKEQPALNDSRYCLSSRLRVSATFWQNPRNHFRCQVQFYGLSENDEWTQDRAKPVTQIVSAEAWGRADCGFTSVSYQQGVLSATILYEILLGKATLYAVLVSALVLMAMVKRKDFGGSG

The binders below were run against T1, KRAS G12D mutant peptide presented by HLA-A*11:01 on cells (human) (assay: cell-based or functional assay).

Compared with B1, B2 is higher in Cmax (%) of CD137 T cell activation by G12D peptide, without knockout of TRAC and TRBC: 16% for the first, 23.9% for the second.

In the case of B3, the Cmax (%) of CD137 T cell activation by G12D peptide, without knockout of TRAC and TRBC is reported as 14.4%.

First: B1
Second: B2
The T cell activation EC50 (CD137 vs G12D peptide dose), TRAC/TRBC double knockout T cells of the first is 1.6-fold higher: 11.8 nM for the first, 7.6 nM for the second.

B3 was tested, and the T cell activation EC50 (CD137 vs G12D peptide dose), TRAC/TRBC double knockout T cells was 36.5 nM.

B1 and B2 are within 1.5-fold of each other in T cell activation EC50 (CD137 vs G12D peptide dose), WT TRAC/TRBC T cells: 49.8 nM for the first, 36.3 nM for the second.

B3 was tested, and the T cell activation EC50 (CD137 vs G12D peptide dose), WT TRAC/TRBC T cells was 131 nM.

Biological target: T1, KRAS G12D mutant peptide presented by …
Experiment: cell-based or functional assay
Remark: another data set of the same source

Going from B1 to B2, the T cell activation EC50 (CD137 vs G12D peptide dose), TRAC/TRBC double knockout T cells rises from 4.4 nM to 9.4 nM (2.1-fold).

B3 was tested, and the T cell activation EC50 (CD137 vs G12D peptide dose), TRAC/TRBC double knockout T cells was 14.4 nM.

B1 and B2 are within 1.5-fold of each other in T cell activation EC50 (CD137 vs G12D peptide dose), WT TRAC/TRBC T cells: 31.1 nM for the first, 37.8 nM for the second.

In the case of B3, the T cell activation EC50 (CD137 vs G12D peptide dose), WT TRAC/TRBC T cells is reported as 179 nM.
